Data set [1] concerns the target T1, holo-SDHA-SDHAF2 complex (preformed from purified proteins) (human, UniProt P31040 43-664; Q9NX18 37-166, covalently attached FAD (residue not stated)).
T1 construct: human SDHAF2, mature, residues 37-166; also called holo-SDHA-AF2; SDHA-AF2 complex; source: E. coli BL21(DE3) proteins, purified; not shown: His6, N-terminal, kept; His6, N-terminal, cleaved
Kind of data set: pull-down; preformed holo-SDHA-SDHAF2 (2 µM, His6 on SDHA) incubated with SDHAF4 or its variants, with or without 5 mM fumarate, 30 min 25 °C, then held on Ni-NTA agarose; SDS-PAGE with Coomassie, western blot for the truncated variants. Conditions: both partners purified. On the technique in general: In western blotting, separated proteins are transferred to a membrane and probed.

Data set [2] concerns the molecule itself. Put plainly: native gel or EMSA; purified His6-SDHAF4^30-108, dilution series from 5 mg/ml, on 10% native and 10% SDS gels. Background: A gel shift assay detects complexes by their altered migration in electrophoresis.
Data set [3] concerns the target T2, holo-SDHA with covalently attached FAD (human, UniProt P31040 43-664, covalently attached FAD (residue not stated)).
T2 construct: also called SDHA with covalent FAD; His6-SDHA; source: E. coli BL21(DE3), purified; covalent FAD formed in vitro (apo-SDHA with SDHAF2, FAD and fumarate) or by co-expression with SDHAF2; not shown: His6, N-terminal, kept
Kind of data set: crystal structure; SDHA-AF2-AF4: holo-SDHA-SDHAF2 with His6-SDHAF4, 5 h at 4 °C, SEC; crystals in 0.2 M ammonium citrate tribasic pH 8.0, 20% PEG 3,350, 1 mM DTT, 25 °C. Conditions: both partners purified.

The target in data set [4] is T3, Human SDHA-AF2 complex (co-expressed, purified) (human, UniProt P31040 43-664; Q9NX18 37-166, covalently attached FAD (residue not stated)).
T3 construct: human SDHAF2, mature, residues 37-166; also called holo-SDHA-SDHAF2 complex; holo-SDHA-AF2; not shown: His6, N-terminal, kept
T3 sequence (P31040 43-664, one chain of several): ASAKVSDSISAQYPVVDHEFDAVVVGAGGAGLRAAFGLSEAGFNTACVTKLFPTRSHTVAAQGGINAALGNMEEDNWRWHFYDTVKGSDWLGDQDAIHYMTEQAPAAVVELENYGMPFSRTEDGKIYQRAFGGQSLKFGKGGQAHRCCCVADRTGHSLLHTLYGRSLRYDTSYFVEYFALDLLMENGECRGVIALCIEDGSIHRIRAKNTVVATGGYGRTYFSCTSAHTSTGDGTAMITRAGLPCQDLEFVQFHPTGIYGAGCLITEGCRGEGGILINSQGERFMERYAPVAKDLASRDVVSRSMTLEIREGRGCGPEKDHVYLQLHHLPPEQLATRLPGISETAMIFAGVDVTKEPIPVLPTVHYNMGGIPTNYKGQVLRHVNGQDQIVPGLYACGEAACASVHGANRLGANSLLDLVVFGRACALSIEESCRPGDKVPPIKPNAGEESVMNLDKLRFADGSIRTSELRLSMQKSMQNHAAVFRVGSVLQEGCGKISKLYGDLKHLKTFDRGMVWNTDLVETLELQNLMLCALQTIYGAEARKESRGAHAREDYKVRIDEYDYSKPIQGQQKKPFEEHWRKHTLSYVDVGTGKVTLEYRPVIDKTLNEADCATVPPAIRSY
The data set is described as above. Conditions: both partners purified.

Data set [5] addresses T2, holo-SDHA with covalently attached FAD. Put plainly: pull-down; preformed holo-SDHA-SDHAF2 (2 µM, His6 on SDHA) incubated with SDHAF4 or its variants, with or without 5 mM fumarate, 30 min 25 °C, then held on Ni-NTA agarose; SDS-PAGE with Coomassie, western blot for the truncated variants. Conditions: both partners purified.
The next data set concerns the target T4, His6-apo-SDHA (human, UniProt P31040 43-664).
T4 construct: the same molecule with 75 µM FAD added is the form with non-covalent FAD; also called His-SDHA; not shown: His6, N-terminal, kept
Put plainly: pull-down; Ni-NTA pull-down, pairwise; His6-apo-SDHA (2.6 µM) with SDHAF2 (6.4 µM) or FLAG-SDHAF4 (8 µM), no FAD; 40 mM HEPES pH 7.5, 0.5 mM DTT, 30 min 25 °C; SDS-PAGE, Coomassie. Conditions: both partners purified.

T1 sequence (P31040 43-664, one chain of several): as above
T2 sequence (P31040 43-664): as the sequence (P31040 43-664, one chain of several) above
T4 sequence (P31040 43-664): as the sequence (P31040 43-664, one chain of several) above

B1: FLAG-SDHAF4 (mature, residues 20-108) (natural protein, human, UniProt Q5VUM1 20-108, looked up)
chain: AARSPLLCHSLRKTSSSQGGKSELVKQSLKKPKLPEGRFDAPEDSHLEKEPLEKFPDDVNPVTKEKGGPRGPEPTRYGDWERKGRCIDF
notes: human SDHAF4, mature protein, residues 20-108, codon-optimised synthetic gene in pST50Trc3-FLAG; also called full-length SDHAF4; wild-type SDHAF4; source: E. coli BL21(DE3), purified (DEAE-Sepharose, filtration)
In the case of B1, the “percent of SDHAF2 displaced from the SDHA-AF2 complex” value (from here on “percent of SDHAF2 displaced”) in data set [1] is about 80%.

B2: SDHAF4^D107A (natural protein, human, UniProt Q5VUM1 30-108, looked up)
chain: LRKTSSSQGGKSELVKQSLKKPKLPEGRFDAPEDSHLEKEPLEKFPDDVNPVTKEKGGPRGPEPTRYGDWERKGRCIAF
notes: human SDHAF4, residues 30-108, made by modification of the pQT-SDHAF4 parent vector; The pQT vector adds a TEV-cleavable His tag; source: E. coli BL21(DE3), purified
Turning to B2, the binding result in data set [1] was “binds”.

B3: His6-SDHAF4^30-108 (natural protein, human, UniProt Q5VUM1 30-108, looked up)
chain: LRKTSSSQGGKSELVKQSLKKPKLPEGRFDAPEDSHLEKEPLEKFPDDVNPVTKEKGGPRGPEPTRYGDWERKGRCIDF
notes: human SDHAF4, residues 30-108, in the pQT vector (pQT-SDHAF4); also called His-SDHAF4; purified SDHAF4; source: E. coli BL21(DE3), purified (Ni-NTA, SEC); not shown: His6, N-terminal, kept
In the case of B3, the binding result in data set [2], in data set [3] and in data set [4] was “binds” throughout.

B4: SDHAF4^D107T (natural protein)
chain: not shown
notes: as for B2
Take B4: the binding result in data set [1] is “binds”.

B5: SDHAF4^F108A (natural protein, human, UniProt Q5VUM1 30-108, looked up)
chain: LRKTSSSQGGKSELVKQSLKKPKLPEGRFDAPEDSHLEKEPLEKFPDDVNPVTKEKGGPRGPEPTRYGDWERKGRCIDA
notes: as for B2
On to B5, for which the binding result in data set [1] is given as “binds”.

B6: SDHAF4^D107N (natural protein, human, UniProt Q5VUM1 30-108, looked up)
chain: LRKTSSSQGGKSELVKQSLKKPKLPEGRFDAPEDSHLEKEPLEKFPDDVNPVTKEKGGPRGPEPTRYGDWERKGRCINF
notes: as for B2
On to B6, for which the binding result in data set [1] is recorded as “binds”.

B7: SDHAF4^67-108 (domain or fragment)
chain: not shown
notes: human SDHAF4, residues 67-108; also called truncated FLAG-SDHAF4 variant
In the case of B7, in data set [1], the “percent of SDHAF2 displaced” value is about 50%.

B8: SDHAF4^56-108 (domain or fragment)
chain: not shown
notes: human SDHAF4, residues 56-108; also called truncated FLAG-SDHAF4 variant
As to B8, the “percent of SDHAF2 displaced” value in data set [1] is about 50%.

B9: SDHAF4^77-108 (domain or fragment)
chain: not shown
notes: human SDHAF4, residues 77-108; also called truncated FLAG-SDHAF4 variant
In the case of B9, in data set [1], the “percent of SDHAF2 displaced” value is about 50%.

B10: SDHAF2 (residues 37-166, His6 tag removed with TEV protease) (natural protein, human, UniProt Q9NX18 37-166, looked up)
chain: GDSPTDSQKDMIEIPLPPWQERTDESIETKRARLLYESRKRGMLENCILLSLFAKEHLQHMTEKQLNLYDRLINEPSNDWDIYYWATEAKPAPEIFENEVMALLRDFAKNKNKEQRLRAPDLEYLFEKPR
notes: human SDHAF2, mature, residues 37-166; source: E. coli BL21(DE3), purified; His6 tag removed with TEV protease; not shown: His6, N-terminal, cleaved
For the molecule B10, the binding result (in data set [5]; in the data set with His6-apo-SDHA) was “binds” throughout.

B11: SDHAF4^ΔF108 (natural protein, human, UniProt Q5VUM1 30-108, looked up)
chain: LRKTSSSQGGKSELVKQSLKKPKLPEGRFDAPEDSHLEKEPLEKFPDDVNPVTKEKGGPRGPEPTRYGDWERKGRCID
notes: human SDHAF4, residues 30-108 without the C-terminal F108, made by modification of the pQT-SDHAF4 parent vector; The pQT vector adds a TEV-cleavable His tag; source: E. coli BL21(DE3), purified
B11: the binding result in data set [1] is on record as “binds”.
